Laboratory results reported in article PMC3662668, “Structural and Functional Basis for Inhibition of Erythrocyte Invasion by Antibodies that Target Plasmodium falciparum EBA-175” (PLoS Pathogens, 2013).

B1: R218 IgG (antibody, V domains shown)
VH: EVQLQQSGAELVKPGASVKLSCTASGFNIKDNYMHWVKQRPEQGLEWIGRIDPANGNTKYDPKFQGKATITADTSSNTAYLQLSSLTSEDTAVYYCARHYDGYFLYYFEYWGQGTTLTVSS
VL: DIQMTQTTSSLSASLGDRVTITCRAGQDISNYLNWYQQKPDGTVKLLIYYTSRLHSGVPSRFSGSGSGTDYSLTISNLEQEDIATYFCQQGSTFPWTFGGGTKLEIK
notes: mouse IgG1 heavy chain; its Fab part as the heavy chain of m5 (deposited structure); as the light chain of m5; IgG1 mouse monoclonal antibody; also called R218 antibody
B2: R217 IgG (antibody, V domains shown)
VH: VQLQQSGPELVKPGTSVKISCKTSGYTFTENTMHWVKQSHGESLDWVGGINTDNGGTTYSQKFKGKATLTVDKSSSTAYMELRSLTSEDSAVYYCSTGYDAMDYWGQGTSVTVSS
VL: NIVLTQSPASLAVSLGQRATISCRASKGVDSYGNSFMHWYQQRPGQPPKLLIYLASHLESGVPARFSGSGSRTDFTLTIDPVEADDAATYYCQQNNEDPFTFGSGTKLEIK
notes: mouse IgG1 heavy chain; its Fab part as the heavy chain of m3 (deposited structure); as the light chain of m3; IgG1 mouse monoclonal antibody; also called R217 antibody

Target: T1, wildtype PfEBA-175 RII expressed on the surface of HEK293T cells (Plasmodium falciparum, strain not …, UniProt Q8IBE8)
T1 construct: PfEBA-175 of P. falciparum, region II; The pRE4 vector supplies the signal and membrane anchor for surface display (surmise); also called wildtype RII; source: HEK293T, transfected (pRE4 vector), on the cell surface; not shown: GFP, C-terminal, kept
Assay: immunostaining of cells or tissue; DBL proteins on the surface of transfected HEK293T cells, probed with 10 µg/ml R217 or R218, then Alexafluor-546 anti-mouse IgG1; fluorescence microscopy
Conditions: one partner purified

| Binder | binding result |
| --- | --- |
| B1 | binds |
| B2 | binds |
